Data reported in PMC9870916, “The mitochondrial inhibitor IF1 binds to the ATP synthase OSCP subunit and protects cancer cells from apoptosis” (Cell Death & Disease, 2023).

Molecular target: T1, OSCP-NT (R6-G114) (human, UniProt P48047 29-137)
T1 construct: Used unlabelled (added in excess) or 15N-labelled (observed); cleavage leaves no additional residues; also called N-terminal domain of OSCP; source: E. coli BL21(DE3), purified (Ni-HisTrap, Ulp1 cleavage, cation exchange, Superdex 75); not shown: His6-SUMO, N-terminal, cleaved
T1 sequence (looked up): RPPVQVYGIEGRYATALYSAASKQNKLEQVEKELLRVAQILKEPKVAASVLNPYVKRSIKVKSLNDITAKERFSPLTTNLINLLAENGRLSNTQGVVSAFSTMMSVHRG
Assay: NMR titration; 1H-15N SOFAST-HMQC of 15N-labelled IF1-NT without and with 15-fold molar excess of unlabelled OSCP-NT or OSCP-CT; for OSCP-NT: 30 μM IF1-NT, 450 μM OSCP-NT, 50 mM phosphate, 300 mM NaCl, pH 7.0, 7 °C
Settings: both partners purified

binding result: binds
B1: IF1-NT (G1-E40) (domain or fragment, human, UniProt Q9UII2 26-65, looked up)
chain: GSDQSENVDRGAGSIREAGGAFGKREQAEEERYFRAQSRE
notes: Used 15N-labelled (observed) or unlabelled (added in excess); cleavage leaves no additional residues; also called IF1-1NT; N-terminal domain of IF1; source: E. coli BL21(DE3), purified (Ni-HisTrap, Ulp1 cleavage, second Ni-HisTrap, Superdex 75); not shown: His6-SUMO, N-terminal, cleaved
